Consider 4 molecules from article doi:10.1101/2024.07.24.604858 (bioRxiv, 2024).

The target of assay [1] is T1, PfCSP N-junction peptide NPDP_(20aa) (Plasmodium falciparum (matches 3D7 …)).
T1 chain: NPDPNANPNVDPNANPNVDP
Description: SPR. (SPR reads the build-up and loss of mass on a sensor chip optically.)

Assay [2] deals with T2, PfCSP central repeat peptide NANP_(20aa) (Plasmodium falciparum (repeat peptide, …)).
T2 chain: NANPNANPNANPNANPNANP
The assay can be described thus: SPR.

B1: mAb 0786 wt (antibody, V domains shown)
VH: EVQLVESGGGLVQPGRSLRLSCTTSGFTFGDFAMSWVRQAPGKGLEWVGFIRSKANGGSTEYAASVKGRFTISRDDSKSIAYLQMDSLKTEDTAVYYCCRVWIQLWPLDYWGQGTLVTVSS
VL: EIVLTQSPGTLSLSPGERATLSCRASQSIGSSYLAWYQLKPGQAPRLLIYGASSRATGIPDRFSGSGSGTDFTLIISRLEPEDFAVYFCQQYGRSPWTFGQGTKVEIK
For B1, the binding result in assay [1] and in assay [2] was “binds” throughout.

B2: mAb 0786 with H.N56 reverted to the GL Tyr (antibody, V domains shown)
VH: EVQLVESGGGLVQPGRSLRLSCTTSGFTFGDFAMSWVRQAPGKGLEWVGFIRSKAYGGSTEYAASVKGRFTISRDDSKSIAYLQMDSLKTEDTAVYYCCRVWIQLWPLDYWGQGTLVTVSS
VL: EIVLTQSPGTLSLSPGERATLSCRASQSIGSSYLAWYQLKPGQAPRLLIYGASSRATGIPDRFSGSGSGTDFTLIISRLEPEDFAVYFCQQYGRSPWTFGQGTKVEIK
In the case of B2, the binding result in assay [1] and in assay [2] was “binds” each time.

B3: mAb 0786 with H.A63P (antibody, V domains shown)
VH: EVQLVESGGGLVQPGRSLRLSCTTSGFTFGDFAMSWVRQAPGKGLEWVGFIRSKANGGSTEYPASVKGRFTISRDDSKSIAYLQMDSLKTEDTAVYYCCRVWIQLWPLDYWGQGTLVTVSS
VL: EIVLTQSPGTLSLSPGERATLSCRASQSIGSSYLAWYQLKPGQAPRLLIYGASSRATGIPDRFSGSGSGTDFTLIISRLEPEDFAVYFCQQYGRSPWTFGQGTKVEIK
Regarding B3, the binding result in assay [1] and in assay [2] was “binds” each time.

B4: mAb 0786 with Arg introduced at H.59 (antibody, V domains shown)
VH: EVQLVESGGGLVQPGRSLRLSCTTSGFTFGDFAMSWVRQAPGKGLEWVGFIRSKANGGRTEYAASVKGRFTISRDDSKSIAYLQMDSLKTEDTAVYYCCRVWIQLWPLDYWGQGTLVTVSS
VL: EIVLTQSPGTLSLSPGERATLSCRASQSIGSSYLAWYQLKPGQAPRLLIYGASSRATGIPDRFSGSGSGTDFTLIISRLEPEDFAVYFCQQYGRSPWTFGQGTKVEIK
Turning to B4, the binding result in assay [1] and in assay [2] was “binds” in each case.
